{"source": "paper PMC10289004", "key": {"[1]": {"assay": "western blot, erythrocytes of LPS-injected mice", "settings": "glycan gained; control: LPS + PBS"}, "[2]": {"assay": "western blot, MEFs, 4h TSZ", "settings": "glycan lost; control: TSZ alone"}, "[3]": {"assay": "RIPK1 protein level, MEFs", "settings": "glycan lost; control: untreated"}, "[4]": {"assay": "RIPK1 protein level, HT-29 or HEK293", "settings": "glycan lost; control: untreated / control knockdown"}}, "data": [{"protein": "RIPK1 (mouse): TMG (protein) parent chain: MQPDMSLDNIKMASSDLLEKTDLDSGGFGKVSLCYHRSHGFVILKKVYTGPNRAEYNEVLLEEGKMMHRLRHSRVVKLLGIIIEEGNYSLVMEYMEKGNLMHVLKTQIDVPLSLKGRIIVEAIEGMCYLHDKGVIHKDLKPENILVDRDFHIKIADLGVASFKTWSKLTKEKDNKQKEVSSTTKKNNGGTLYYMAPEHLNDINAKPTEKSDVYSFGIVLWAIFAKKEPYENVICTEQFVICIKSGNRPNVEEILEYCPREIISLMERCWQAIPEDRPTFLGIEEEFRPFYLSHFEEYVEEDVASLKKEYPDQSPVLQRMFSLQHDCVPLPPSRSNSEQPGSLHSSQGLQMGPVEESWFSSSPEYPQDENDRSVQAKLQEEASYHAFGIFAEKQTKPQPRQNEAYNREEERKRRVSHDPFAQQRARENIKSAGARGHSDPSTTSRGIAVQQLSWPATQTVWNNGLYNQHGFGTTGTGVWYPPNLSQMYSTYKTPVPETNIPGSTPTMPYFSGPVADDLIKYTIFNSSGIQIGNHNYMDVGLNSQPPNNTCKEESTSRHQAIFDNTTSLTDEHLNPIRENLGRQWKNCARKLGFTESQIDEIDHDYERDGLKEKVYQMLQKWLMREGTKGATVGKLAQALHQCCRIDLLNHLIRASQS", "values": [{"measurement": "other: RIPK1 Ser166 phosphorylation", "setting": "[1]", "result": "decreases"}]}, {"protein": "RIPK1 (mouse): OSMI-4 (protein) parent chain: MQPDMSLDNIKMASSDLLEKTDLDSGGFGKVSLCYHRSHGFVILKKVYTGPNRAEYNEVLLEEGKMMHRLRHSRVVKLLGIIIEEGNYSLVMEYMEKGNLMHVLKTQIDVPLSLKGRIIVEAIEGMCYLHDKGVIHKDLKPENILVDRDFHIKIADLGVASFKTWSKLTKEKDNKQKEVSSTTKKNNGGTLYYMAPEHLNDINAKPTEKSDVYSFGIVLWAIFAKKEPYENVICTEQFVICIKSGNRPNVEEILEYCPREIISLMERCWQAIPEDRPTFLGIEEEFRPFYLSHFEEYVEEDVASLKKEYPDQSPVLQRMFSLQHDCVPLPPSRSNSEQPGSLHSSQGLQMGPVEESWFSSSPEYPQDENDRSVQAKLQEEASYHAFGIFAEKQTKPQPRQNEAYNREEERKRRVSHDPFAQQRARENIKSAGARGHSDPSTTSRGIAVQQLSWPATQTVWNNGLYNQHGFGTTGTGVWYPPNLSQMYSTYKTPVPETNIPGSTPTMPYFSGPVADDLIKYTIFNSSGIQIGNHNYMDVGLNSQPPNNTCKEESTSRHQAIFDNTTSLTDEHLNPIRENLGRQWKNCARKLGFTESQIDEIDHDYERDGLKEKVYQMLQKWLMREGTKGATVGKLAQALHQCCRIDLLNHLIRASQS", "values": [{"measurement": "other: RIPK1 Ser166 phosphorylation", "setting": "[2]", "result": "increases"}, {"measurement": "expression_or_secretion", "setting": "[3]", "result": "no change"}]}, {"protein": "RIPK1 (hRIPK1): OGT knockdown (protein) parent chain: MQPDMSLNVIKMKSSDFLESAELDSGGFGKVSLCFHRTQGLMIMKTVYKGPNCIEHNEALLEEAKMMNRLRHSRVVKLLGVIIEEGKYSLVMEYMEKGNLMHVLKAEMSTPLSVKGRIILEIIEGMCYLHGKGVIHKDLKPENILVDNDFHIKIADLGLASFKMWSKLNNEEHNELREVDGTAKKNGGTLYYMAPEHLNDVNAKPTEKSDVYSFAVVLWAIFANKEPYENAICEQQLIMCIKSGNRPDVDDITEYCPREIISLMKLCWEANPEARPTFPGIEEKFRPFYLSQLEESVEEDVKSLKKEYSNENAVVKRMQSLQLDCVAVPSSRSNSATEQPGSLHSSQGLGMGPVEESWFAPSLEHPQEENEPSLQSKLQDEANYHLYGSRMDRQTKQQPRQNVAYNREEERRRRVSHDPFAQQRPYENFQNTEGKGTAYSSAASHGNAVHQPSGLTSQPQVLYQNNGLYSSHGFGTRPLDPGTAGPRVWYRPIPSHMPSLHNIPVPETNYLGNTPTMPFSSLPPTDESIKYTIYNSTGIQIGAYNYMEIGGTSSSLLDSTNTNFKEEPAAKYQAIFDNTTSLTDKHLDPIRENLGKHWKNCARKLGFTQSQIDEIDHDYERDGLKEKVYQMLQKWVMREGIKGATVGKLAQALHQCSRIDLLSSLIYVSQN", "values": [{"measurement": "expression_or_secretion", "setting": "[4]", "result": "no change"}]}]}
